Results taken from US20090263375A1 (WISCONSIN ALUMNI RESEARCH FOUNDATION, published 2009).

T1: Flag-Star-PAP (full length) (human, UniProt Q9H6E5 1-874)
T1 construct: Expressed in HEK 293 cells and purified on anti-FLAG M2 resin together with its associated complex; also called Flag tagged Star-PAP; full-length Star-PAP; not shown: FLAG tag
T1 sequence: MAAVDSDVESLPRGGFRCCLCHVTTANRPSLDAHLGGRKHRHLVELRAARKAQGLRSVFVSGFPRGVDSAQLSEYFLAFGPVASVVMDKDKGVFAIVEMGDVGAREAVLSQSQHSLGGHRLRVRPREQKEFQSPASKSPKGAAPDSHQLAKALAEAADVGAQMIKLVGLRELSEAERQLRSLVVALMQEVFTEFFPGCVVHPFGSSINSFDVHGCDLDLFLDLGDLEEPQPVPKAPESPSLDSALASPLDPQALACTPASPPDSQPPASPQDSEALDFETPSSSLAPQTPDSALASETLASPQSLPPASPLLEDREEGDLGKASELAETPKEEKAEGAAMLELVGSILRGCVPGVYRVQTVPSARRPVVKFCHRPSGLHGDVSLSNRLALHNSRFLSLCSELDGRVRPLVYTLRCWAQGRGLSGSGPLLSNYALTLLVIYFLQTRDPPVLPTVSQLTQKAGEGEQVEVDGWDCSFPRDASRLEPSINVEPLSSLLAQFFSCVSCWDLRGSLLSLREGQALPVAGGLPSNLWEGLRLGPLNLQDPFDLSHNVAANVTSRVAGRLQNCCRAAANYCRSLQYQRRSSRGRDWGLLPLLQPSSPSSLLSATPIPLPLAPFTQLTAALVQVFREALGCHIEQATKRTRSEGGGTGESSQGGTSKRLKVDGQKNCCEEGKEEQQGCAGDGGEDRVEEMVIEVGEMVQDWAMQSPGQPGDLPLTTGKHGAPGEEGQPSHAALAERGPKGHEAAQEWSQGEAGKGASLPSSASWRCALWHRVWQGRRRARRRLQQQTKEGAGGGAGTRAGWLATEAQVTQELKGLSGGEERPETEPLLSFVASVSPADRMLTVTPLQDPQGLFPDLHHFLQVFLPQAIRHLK


How the values were obtained:
[1] = biological target: T1, Flag-Star-PAP (full length); test: FLAG affinity purification from HEK 293 cells, western blot
Experimental: (§1) Affinity purification of Flag-Star-PAP and Flag-PAPα and their associated complex of proteins in parallel allowed a comparison of the complexes formed by Star-PAP and PAPα in more detail. Flag tagged Star-PAP and PAPα were purified from HEK 293 cells stably expressing Flag-Star-PAP or Flag-PAPα (following manufacturer's instructions; Sigma-Aldrich) and the presence of endogenous symplekin, CPSF¹⁰⁰, CPSF⁷³, CstF⁶⁴, RNA Pol II, Sm protein (Y12) and PIPKIα was assessed by western blotting. Like Flag-PAPα, Flag-Star-PAP associates with symplekin, CPSF¹⁰⁰ and CPSF⁷³, further confirmation that Star-PAP may function in an mRNA polyadenylation complex (FIG. 7). Also detected with both PAPs was a faster migrating form of RNA Pol II and Sm protein (Y-12), a component of the spliceosome, which is consistent with reports that the machinery for splicing and polyadenylation are coupled.

[2] = biological target: T2, Flag-PAPα (canonical poly(A) polymerase) (Homo sapiens (Human), UniProt P51003 1-745, limits assumed); test: as above
T2 construct: not shown: FLAG tag
T2 sequence (P51003 whole entry): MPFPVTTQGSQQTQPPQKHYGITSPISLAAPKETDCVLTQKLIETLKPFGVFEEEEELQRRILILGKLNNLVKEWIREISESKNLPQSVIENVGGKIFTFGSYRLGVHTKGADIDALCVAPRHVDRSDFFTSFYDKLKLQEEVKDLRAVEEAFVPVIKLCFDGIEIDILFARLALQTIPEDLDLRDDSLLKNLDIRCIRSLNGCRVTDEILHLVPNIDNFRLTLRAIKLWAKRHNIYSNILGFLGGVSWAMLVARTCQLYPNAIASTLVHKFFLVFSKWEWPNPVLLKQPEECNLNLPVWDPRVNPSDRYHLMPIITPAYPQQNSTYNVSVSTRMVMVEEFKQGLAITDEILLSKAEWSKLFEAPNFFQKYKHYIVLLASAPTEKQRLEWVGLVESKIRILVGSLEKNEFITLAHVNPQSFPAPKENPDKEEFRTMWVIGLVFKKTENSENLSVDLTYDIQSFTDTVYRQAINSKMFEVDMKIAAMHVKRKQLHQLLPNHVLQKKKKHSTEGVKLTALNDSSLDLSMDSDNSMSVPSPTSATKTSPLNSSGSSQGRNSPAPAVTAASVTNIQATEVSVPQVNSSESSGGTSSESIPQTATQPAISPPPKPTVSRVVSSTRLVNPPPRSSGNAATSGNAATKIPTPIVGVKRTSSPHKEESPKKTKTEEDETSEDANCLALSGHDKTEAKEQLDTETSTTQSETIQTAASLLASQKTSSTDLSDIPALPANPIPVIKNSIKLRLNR
Experimental: as §1

Row | binding result [1] | binding result [2] | Binder
1 | binds | – | CPSF-100 (Cleavage and Polyadenylation Specificity Factor subunit 100) (other, human, UniProt Q9P2I0 1-782, looked up, also called SPSF-100) MTSIIKLTTLSGVQEESALCYLLQVDEFRFLLDCGWDEHFSMDIIDSLRKHVHQIDAVLLSHPDPLHLGALPYAVGKLGLNCAIYATIPVYKMGQMFMYDLYQSRHNTEDFTLFTLDDVDAAFDKIQQLKFSQIVNLKGKGHGLSITPLPAGHMIGGTIWKIVKDGEEEIVYAVDFNHKREIHLNGCSLEMLSRPSLLITDSFNATYVQPRRKQRDEQLLTNVLETLRGDGNVLIAVDTAGRVLELAQLLDQIWRTKDAGLGVYSLALLNNVSYNVVEFSKSQVEWMSDKLMRCFEDKRNNPFQFRHLSLCHGLSDLARVPSPKVVLASQPDLECGFSRDLFIQWCQDPKNSIILTYRTTPGTLARFLIDNPSEKITEIELRKRVKLEGKELEEYLEKEKLKKEAAKKLEQSKEADIDSSDESDIEEDIDQPSAHKTKHDLMMKGEGSRKGSFFKQAKKSYPMFPAPEERIKWDEYGEIIKPEDFLVPELQATEEEKSKLESGLTNGDEPMDQDLSDVPTKCISTTESIEIKARVTYIDYEGRSDGDSIKKIINQMKPRQLIIVHGPPEASQDLAECCRAFGGKDIKVYMPKLHETVDATSETHIYQVRLKDSLVSSLQFCKAKDAELAWIDGVLDMRVSKVDTGVILEEGELKDDGEDSEMQVEAPSDSSVIAQQKAMKSLFGDDEKETGEESEIIPTLEPLPPHEVPGHQSVFMNEPRLSDFKQVLLREGIQAEFVGGVLVCNNQVAVRRTETGRIGLEGCLCQDFYRIRDLLYEQYAIV
2 | binds | no binding | CstF-64 (Cleavage-Stimulatory Factor subunit 64) (other, human, UniProt P33240 1-577, looked up) MAGLTVRDPAVDRSLRSVFVGNIPYEATEEQLKDIFSEVGPVVSFRLVYDRETGKPKGYGFCEYQDQETALSAMRNLNGREFSGRALRVDNAASEKNKEELKSLGTGAPVIESPYGETISPEDAPESISKAVASLPPEQMFELMKQMKLCVQNSPQEARNMLLQNPQLAYALLQAQVVMRIVDPEIALKILHRQTNIPTLIAGNPQPVHGAGPGSGSNVSMNQQNPQAPQAQSLGGMHVNGAPPLMQASMQGGVPAPGQMPAAVTGPGPGSLAPGGGMQAQVGMPGSGPVSMERGQVPMQDPRAAMQRGSLPANVPTPRGLLGDAPNDPRGGTLLSVTGEVEPRGYLGPPHQGPPMHHVPGHESRGPPPHELRGGPLPEPRPLMAEPRGPMLDQRGPPLDGRGGRDPRGIDARGMEARAMEARGLDARGLEARAMEARAMEARAMEARAMEARAMEVRGMEARGMDTRGPVPGPRGPIPSGMQGPSPINMGAVVPQGSRQVPVMQGTGMQGASIQGGSQPGGFSPGQNQVTPQDHEKAALIMQVLQLTADQIAMLPPEQRQSILILKEQIQKSTGAP
3 | binds | binds | CPSF-73 (Cleavage and Polyadenylation Specificity Factor subunit 73) (enzyme, human, UniProt Q9UKF6 2-684, looked up, also called CSPF-73) SAIPAEESDQLLIRPLGAGQEVGRSCIILEFKGRKIMLDCGIHPGLEGMDALPYIDLIDPAEIDLLLISHFHLDHCGALPWFLQKTSFKGRTFMTHATKAIYRWLLSDYVKVSNISADDMLYTETDLEESMDKIETINFHEVKEVAGIKFWCYHAGHVLGAAMFMIEIAGVKLLYTGDFSRQEDRHLMAAEIPNIKPDILIIESTYGTHIHEKREEREARFCNTVHDIVNRGGRGLIPVFALGRAQELLLILDEYWQNHPELHDIPIYYASSLAKKCMAVYQTYVNAMNDKIRKQININNPFVFKHISNLKSMDHFDDIGPSVVMASPGMMQSGLSRELFESWCTDKRNGVIIAGYCVEGTLAKHIMSEPEEITTMSGQKLPLKMSVDYISFSAHTDYQQTSEFIRALKPPHVILVHGEQNEMARLKAALIREYEDNDEVHIEVHNPRNTEAVTLNFRGEKLAKVMGFLADKKPEQGQRVSGILVKRNFNYHILSPCDLSNYTDLAMSTVKQTQAIPYTGPFNLLCYQLQKLTGDVEELEIQEKPALKVFKNITVIQEPGMVVLEWLANPSNDMYADTVTTVILEVQSNPKIRKGAVQKVSKKLEMHVYSKRLEIMLQDIFGEDCVSVKDDSILSVTVDGKTANLNLETRTVECEEGSEDDESLREMVELAAQRLYEALTPVH
